The target of assay [1] is Hsp16.3, 16 kDa alpha-crystallin like heat shock protein of Mycobacterium tuberculosis, recombinant 6xHis-tagged (Mycobacterium tuberculosis) (UniProt P9WMK1). The assay is described as follows: reverse phage ELISA on coated Hsp16.3, anti-M13-HRP, A405. On the technique in general: ELISA stands for enzyme-linked immunosorbent assay.
Assay [2] has the same target. Briefly: cell-based or functional assay.

The record followed here is patent publication US20070037211A1 (COUNCIL OF SCIENTIFIC AND INDUSTRIAL RESEARCH CSIR, published 2007).

Hsp16.3, 16 kDa alpha-crystallin like heat shock protein of Mycobacterium tuberculosis, recombinant 6xHis-tagged (Mycobacterium tuberculosis), sequence (P9WMK1 1-144, tags left off): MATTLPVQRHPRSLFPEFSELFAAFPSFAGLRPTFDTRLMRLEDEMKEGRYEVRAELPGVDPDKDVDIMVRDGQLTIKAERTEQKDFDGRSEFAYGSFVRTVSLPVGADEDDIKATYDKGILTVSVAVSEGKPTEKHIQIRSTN

As to “M13 phage clone displaying peptide Seq ID 9 (Lys-Met-His-Ala-Thr-Asn-His), from Ph.D.-7 library”, in assay [1], the fold binding over non-specific control BSA is 3 fold. Regarding “synthetic peptide Seq ID 10 (Seq ID 9 with Gly-Gly-Gly-Ser at the C-terminal end), C-terminus amidated”, in assay [2], the IC50 of inhibition of chaperon activity of Hsp16.3 (ADH heat aggregation assay, A360) stood at 47 µM; the aggregation of ADH restored in the presence of Hsp16.3 and 100 µM peptide (A360 at saturation) was determined as 70%.
